According to PMC4718513:

Target: VAPB-MSP domain, MSP(1–125) (human) (UniProt O95292)
Experiment: NMR titration; 1H-15N HSQC of 15N-labelled VAPB protein (50 uM) with unlabelled NS5B or Eph protein added at different molar ratios (increment 0.5 for C-linker and Eph); 10 mM phosphate buffer pH 6.8, 25 C, 800 MHz; CSD tracings fitted with a one binding site model for residue-specific Kd

Chain of UniProt O95292 (O95292 1-125): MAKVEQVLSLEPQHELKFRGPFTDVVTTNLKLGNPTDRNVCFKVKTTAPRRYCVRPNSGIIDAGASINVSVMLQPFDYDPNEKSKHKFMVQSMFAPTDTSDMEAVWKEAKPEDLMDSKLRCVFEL

Question: With NS5B C-linker peptide (531–570) as the substance, how does the Kd read?
Answer: Its Kd is 8.8 µM.

Question: And the residue-specific Kd (MSP residue 53C)?
Answer: Its residue-specific Kd (MSP residue 53C) is 1.4 µM.

Question: And the residue-specific Kd (MSP residue 79D)?
Answer: Its residue-specific Kd (MSP residue 79D) is 13.6 µM.

Question: And the residue-specific Kd (MSP residue 82E)?
Answer: Its residue-specific Kd (MSP residue 82E) is 12.8 µM.

Question: And the residue-specific Kd (MSP residue 90V)?
Answer: Its residue-specific Kd (MSP residue 90V) is 9 µM.

Question: What about the residue-specific Kd (MSP residue 116D) of the same substance?
Answer: The residue-specific Kd (MSP residue 116D) was 5.7 µM.

Question: What about the residue-specific Kd (MSP residue 118K) of the same substance?
Answer: The residue-specific Kd (MSP residue 118K) was 2.9 µM.

Question: And the residue-specific Kd (MSP residue 119L)?
Answer: The residue-specific Kd (MSP residue 119L) was 16 µM.
